Like-named read-outs stand apart in the source and are kept apart here.
Key:
[1] = molecular target: PfOPRTase 1–218(Δ37–58)-H6 (Plasmodium falciparum) (UniProt Q8I3Y0); experiment: crystal structure; hanging drop, 100 mM ammonium sulfate, 30% PEG 3350, 277 K; protein at 30 mg/ml; space group P212121, eight chains (four catalytic dimers) in the asymmetric unit
[2] = molecular target: PfOPRTase 1–218(Δ37–58)-H6 (Plasmodium falciparum) (UniProt Q8I3Y0); experiment: as above; remark: listed apart in the source

PfOPRTase 1–218(Δ37–58)-H6 (from UniProt Q8I3Y0 1-218) (enzyme)
stoichiometry N [1]: 2
stoichiometry N [2]: 4

From paper PMC4427171
